According to article PMC3538841:

What was measured:
Assay in all cases: negative stain EM reconstruction
[1] = molecular target: A/Hong Kong/1/1968 (H3N2) HA (influenza A virus A/Hong Kong/1/1968 (H3N2)) (UniProt Q91MA7)
[2] = molecular target: Wisc66/H9 HA (influenza A virus, Wisc66 (H9))
[3] = molecular target: A/Netherlands/219/2003 (H7N7) HA (influenza A virus A/Netherlands/219/2003 (H7N7)) (UniProt Q6VMK1)
[4] = molecular target: A/South Carolina/1/1918 (H1N1) HA (influenza A virus A/South Carolina/1/1918 (H1N1)) (UniProt Q9WFX3)

Measured: stoichiometry N (Fabs per HA trimer)

Fab CR9114
3: [1] | [2] | [3] | [4]
